Data set [1] addresses T1, NR2B/RasGRF1 native complex (Rattus norvegicus, UniProt P28818+Q00960).
T1 construct: from tissue; host or cells: P2 microsomes of 6- to 8-week-old rat brain
In words: competition co-immunoprecipitation of native NR2B-RasGRF1 complexes from rat brain microsomes. As to conditions: NusA fusion proteins 3-5 μM; 6- to 8-week-old rat brains. The data set is classed as binding. On the procedure: Transfected cells were solubilized in lysis buffer (100 mM Tris-Cl [pH 8.5], 500 mM NaCl, 1% Triton X-100) supplemented with corn plete protease inhibitor (Roche) and immunoprecipitated with NR2B (Santa Cruz, sc-9057), NR1, or NR2A (Chemicon) antibody (5 μg/ml), washed with lysis buffer, separated on SDS gel, and blotted on PVDF. Blots were probed with anti-RasGRF1 (Santa Cruz) and the appropriate NR subunit antibody. 6- to 8-week-old rat brain P2 microsomes were isolated and solubilized as described (Luo, J., et al. (1997) Mol. Pharmacol. 51, 79-86). 80 μg of solubilized protein were immunoprecipitated with NR2B, RasGRF1, or pooled rabbit IgG, and immunoprecipitated proteins were probed on Western blot with RasGRF1 and NR2B antibodies. All immunoprecipitation experiments were only taken as valid if repeated 3-5 times with similar results. Routine negative controls with antigen pre-absorption were carried out for antibodies used in immunoprecipitation experiments. […]
For in vitro binding experiments, equimolar amounts of in vitro translated ^35S-labeled proteins (calculated from radioactivity of the excised protein band and cysteine content in the specific fragment) were incubated with a 3-fold molar excess of translated RasGRF1 for 30 min at 30° C., diluted with RIPA buffer, and immunoprecipitated with anti-HA-agarose (Santa Cruz). […]

The test system of the next data set is NR2B. In words: immunocytochemistry of NR2B and PSD-95 clusters in cultured neurons. The format is cell-based, rat. The source says: Coverslips with cultured neurons were fixed with 4% paraformaldehyde, permeabilized with 0.3% Triton X-100, and blocked in 10% goat serum in PBS. A rabbit polyclonal antibody against the N terminus of the NR2B subunit of the NMDA receptor (AB1557P, Chemicon, Temecula, Calif.) was used for detection in neurons expressing GFP and RasGRF1-BD. These antibodies could not be used for study of the NR2B subunit distribution in neurons expressing NR2B-BD since they recognized the expressed construct. The distribution of NR2A/B subunit was determined using polyclonal antibody AB 1548 (Chemicon). A mouse monoclonal antibody (clone K 28/43, Upstate, Waltham, Mass.) was used to detect PSD-95. Secondary antibodies were the same as that used for detection of ERK and MAP2. To quantify the distribution of clusters in transfected cells, we first focused on dendrites of neurons expressing the EGFP fluorescent construct. Thereafter, fluorescent images of GFP, NR2B, and PSD-95 were acquired confocally (60×; NA 1.4 objective, zoom 5). Cluster density and brightness were analyzed with the MetaMorph Imaging System (Universal Imaging, Westchester, Pa.). Ten neurons were analyzed from each experiment (3-4 dendritic regions for each neuron).

A further data set concerns CA1 pyramidal neurons. Description: Assay II: propidium iodide (PI) resistance in organotypic hippocampal slice cultures. The data set is classed as cell-based, rat. Particulars: NMDA (50 μM) 20 minutes or ischemia; compared to non-transfected or GFP transfected control cells. How it is done: (A) Survival of hippocampal neurons in culture exposed to Glutamate (100 μM) and Glycine (10 μM) for a 20 minute period. 14 div neuronal cultures were transfected with GFP, NR2B-BD or RasGRF1-BD 24 hours prior to analysis. The neuronal cultures were then incubated with glutamate for 20 minutes, washed with culture media and returned to the incubator for an additional 24 hours. The cells were then fixed with PFA and stained with a neuronal specific antibody, Map2. […] (B) Percentage of propidium iodide-resistant (surviving) neurons in organotypic hippocampal slices (P5+7div) expressing GFP, NR2B-BD or […] in control conditions and after 20 minutes exposure to NMDA (50 μM). The fluorescence of propidium iodide (PI) was measured 24 hours later. PI enters damaged cells and is a convenient tool to determine neuronal cell death. For PI staining, the slices were incubated in culture medium containing 0.1 mg/ml PI for 2 h. […]
Assay II: propidium iodide (PI) resistance. […] Cell death was measured as cellular uptake of PI (3,8-diamino-5-[3-([…])propyl]-6-phenyl phenanthridinium diiodide at 24 and 48 h after exposure to NMDA or ischemia. As shown in FIG. 7(B), the expression of both NR2B-BD and RasGRF1-BD increased the percentage of neuronal survival (e.g., the percentage of PI negative neurons) as compared to non-transfected or GFP transfected control cells.

T1 sequence (Q00960 27-1482): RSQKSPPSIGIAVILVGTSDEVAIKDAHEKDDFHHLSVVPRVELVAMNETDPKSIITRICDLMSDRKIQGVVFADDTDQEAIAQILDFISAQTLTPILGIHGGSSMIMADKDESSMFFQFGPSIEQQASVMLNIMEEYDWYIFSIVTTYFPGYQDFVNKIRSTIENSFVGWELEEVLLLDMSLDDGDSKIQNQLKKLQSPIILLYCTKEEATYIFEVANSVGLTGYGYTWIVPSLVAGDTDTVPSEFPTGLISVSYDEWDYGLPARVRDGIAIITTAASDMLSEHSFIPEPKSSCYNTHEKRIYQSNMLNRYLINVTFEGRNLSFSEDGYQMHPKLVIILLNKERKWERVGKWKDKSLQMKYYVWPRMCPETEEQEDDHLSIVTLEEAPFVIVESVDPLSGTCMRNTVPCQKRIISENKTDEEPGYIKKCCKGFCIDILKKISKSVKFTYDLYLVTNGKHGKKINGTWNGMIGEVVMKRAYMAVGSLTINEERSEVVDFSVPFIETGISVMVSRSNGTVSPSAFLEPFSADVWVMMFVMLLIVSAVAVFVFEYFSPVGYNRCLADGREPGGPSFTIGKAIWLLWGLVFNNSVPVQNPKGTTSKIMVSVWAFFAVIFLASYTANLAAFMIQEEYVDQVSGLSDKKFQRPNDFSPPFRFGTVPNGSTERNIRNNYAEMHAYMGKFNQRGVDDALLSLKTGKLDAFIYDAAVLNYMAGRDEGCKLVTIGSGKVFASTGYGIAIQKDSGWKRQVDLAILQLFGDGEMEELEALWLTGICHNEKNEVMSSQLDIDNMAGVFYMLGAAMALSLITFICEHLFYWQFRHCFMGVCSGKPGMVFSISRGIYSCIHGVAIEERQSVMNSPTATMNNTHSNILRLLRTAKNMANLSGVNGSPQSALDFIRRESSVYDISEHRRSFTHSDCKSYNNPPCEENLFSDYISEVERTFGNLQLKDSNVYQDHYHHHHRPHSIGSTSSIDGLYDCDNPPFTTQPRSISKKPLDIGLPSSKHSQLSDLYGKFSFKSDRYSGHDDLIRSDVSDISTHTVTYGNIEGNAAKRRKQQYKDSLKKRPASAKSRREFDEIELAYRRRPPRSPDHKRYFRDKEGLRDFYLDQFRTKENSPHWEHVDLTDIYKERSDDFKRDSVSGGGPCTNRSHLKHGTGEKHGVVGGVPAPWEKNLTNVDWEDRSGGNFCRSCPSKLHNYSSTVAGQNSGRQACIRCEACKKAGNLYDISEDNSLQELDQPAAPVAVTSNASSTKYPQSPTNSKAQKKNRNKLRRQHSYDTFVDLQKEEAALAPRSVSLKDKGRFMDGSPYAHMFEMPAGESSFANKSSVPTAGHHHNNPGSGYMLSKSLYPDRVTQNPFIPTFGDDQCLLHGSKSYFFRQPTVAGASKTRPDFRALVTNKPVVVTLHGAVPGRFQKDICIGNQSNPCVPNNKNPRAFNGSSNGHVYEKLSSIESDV
T1 sequence (P28818 whole entry): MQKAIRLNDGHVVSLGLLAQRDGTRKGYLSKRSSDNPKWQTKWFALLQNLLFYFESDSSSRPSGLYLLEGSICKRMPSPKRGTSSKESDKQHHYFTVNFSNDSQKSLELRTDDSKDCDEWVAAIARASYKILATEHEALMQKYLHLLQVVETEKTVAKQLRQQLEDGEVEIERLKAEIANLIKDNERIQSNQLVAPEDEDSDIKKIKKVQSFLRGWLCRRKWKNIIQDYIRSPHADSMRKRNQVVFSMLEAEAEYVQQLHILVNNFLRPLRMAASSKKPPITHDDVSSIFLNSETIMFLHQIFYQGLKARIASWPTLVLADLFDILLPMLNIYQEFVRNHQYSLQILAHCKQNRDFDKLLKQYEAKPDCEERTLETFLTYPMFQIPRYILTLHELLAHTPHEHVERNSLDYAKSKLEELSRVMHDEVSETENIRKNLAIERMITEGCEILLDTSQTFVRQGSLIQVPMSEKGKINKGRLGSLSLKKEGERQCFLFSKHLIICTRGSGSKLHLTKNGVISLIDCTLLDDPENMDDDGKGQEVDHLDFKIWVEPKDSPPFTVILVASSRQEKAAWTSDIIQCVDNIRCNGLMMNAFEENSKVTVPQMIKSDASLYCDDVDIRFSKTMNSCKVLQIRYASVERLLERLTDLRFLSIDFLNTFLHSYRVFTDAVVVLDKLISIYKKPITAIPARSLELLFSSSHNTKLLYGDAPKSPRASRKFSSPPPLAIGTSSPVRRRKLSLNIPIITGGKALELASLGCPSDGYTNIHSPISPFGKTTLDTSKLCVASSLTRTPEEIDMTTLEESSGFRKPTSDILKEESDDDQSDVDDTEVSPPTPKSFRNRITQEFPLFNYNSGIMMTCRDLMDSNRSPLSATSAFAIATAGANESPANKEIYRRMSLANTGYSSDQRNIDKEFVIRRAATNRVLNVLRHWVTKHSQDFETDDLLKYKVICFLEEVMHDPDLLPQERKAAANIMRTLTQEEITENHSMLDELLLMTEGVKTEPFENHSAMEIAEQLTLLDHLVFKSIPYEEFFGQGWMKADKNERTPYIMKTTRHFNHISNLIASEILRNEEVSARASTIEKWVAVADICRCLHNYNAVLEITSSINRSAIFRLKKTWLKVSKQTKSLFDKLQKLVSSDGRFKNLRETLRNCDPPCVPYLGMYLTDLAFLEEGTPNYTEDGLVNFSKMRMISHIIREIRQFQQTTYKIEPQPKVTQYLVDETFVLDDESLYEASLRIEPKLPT

B1: NR2B-BD: peptide of amino acids 886-1310 of the NR2B C-terminal domain that binds RasGRF1; used as NusA or EGFP fusion (protein)
chain: SPTATMNNTHSNILRLLRTAKNMANLSGVNGSPQSALDFIRRESSVYDISEHRRSFTHSDCKSYNNPPCEENLFSDYISEVERTFGNLQLKDSNVYQDHYHHHHRPHSIGSTSSIDGLYDCDNPPFTTQPRSISKKPLDIGLPSSKHSQLSDLYGKFSFKSDRYSGHDDLIRSDVSDISTHTVTYGNIEGNAAKRRKQQYKDSLKKRPASAKSRREFDEIELAYRRRPPRSPDHKRYFRDKEGLRDFYLDQFRTKENSPHWEHVDLTDIYKERSDDFKRDSVSGGGPCTNRSHLKHGTGEKHGVVGGVPAPWEKNLTNVDWEDRSGGNFCRSCPSKLHNYSSTVAGQNSGRQACIRCEACKKAGNLYDISKDNSLQELDQPAAPVAVTSNASSTKYPQSPTNSKAQKKNRNKLRRQHSYDTFVDL
modifications: left off: small tags and cut ends
notes: used as NusA or EGFP fusion
As for B1, in data set [1], the “co-immunoprecipitation of NR2B and RasGRF1” value was “completely blocked”. Besides, in the data set with NR2B (compared to cells expressing GFP alone), the “average number NR2B-positive clusters” value is “did not reveal any changes”. Further, in the data set on NR2B (cultured neurons expressing blocking peptides), the “localization or density of NR2B or PSD-95” value is reported as “did not change”. The “percentage of neuronal survival (PI negative neurons)” value in the data set with CA1 pyramidal neurons is recorded as “increased”.

The record behind these values is patent US7425614B2, “Neuroprotective therapeutics preventing ERK/MAPK activation through the NMDA receptor” (Children's Medical Center Corporation, priority 2003, dated 2008).
